Measured values from the RNAGym collection of RNA variant scans (doi:10.7554/elife.80360).

B1: HDV Ribozyme (parent)
chain: GGCCGGCAUGGUCCCAGCCUCCUCGCUGGCGCCGGCUGGGCAACAUUCCGAGGGGACCGUCCCCUCGGUAAUGGCGAAUGGGACCCA

Variants of: B1
Assay: self-cleavage, relative activity (ratio to wild type); higher = more cleavage; co-transcriptional

In order of falling self-cleavage:
1. GGCCGGCAUGGUCCCAGCCUCCUCGCUGGCGCCUGCUGGGCAACAUUCCGAGGGGACCGUCCCCUCGGUAAUGGCGAAUGGGACCAA [G34U C86A]  0.325
2. GGCCGGCAUGGUCCCAGCCUCCUCGCUGGCGCCUGCUGGGCAACAUUCCGAGGGGACCGUCCCCUCGCUAAUGGCGAAUGGGACCCA [G34U G68C]  0.322
3. GGCCGGCAUGGUCCCAGCCUCCUCGCUGGCGCCUGCUGGGCAACAUUCCAAGGGGACCGUCCCCUCGGUAAUGGCGAAUGGGACCCA [G34U G50A]  0.312
4. GGCCGGCAUGGUCCCAGCCUCCUCGCUGGCGCCUGCUGGGCAACAUUCCGAGGGGACCGUCCCCUCGGUAAUCGCGAAUGGGACCCA [G34U G73C]  0.289
5. GGCCGGCAUGGUCCCAGCCUCCUCGCUGGCGCCUGCUGGGCAACAUGCCGAGGGGACCGUCCCCUCGGUAAUGGCGAAUGGGACCCA [G34U U47G]  0.267
6. GGCCGGCAUGGUCCCAGCCUCCUCGCUGGCGCCUGCUGGGCAACAUUCCGAGGGGACCGUCCCCUCGGUAAUGGCGAAUGGGAUCCA [G34U C84U]  0.261
7. GGCCGGCAUGGUCCCAGCCUCCUCGCUGGCGCCUGCUGGGCAACAUUCCGAGGGGACCGUCCCCUCUGUAAUGGCGAAUGGGACCCA [G34U G67U]  0.231
8. GGCCGGCAUGGUCCCAGCCUCCUCGCUGGCGCCUGCUGGGCAACAUUCCGAGGGGACCUUCCCCUCGGUAAUGGCGAAUGGGACCCA [G34U G59U]  0.229
9. GGCCGGCAUGGUCCCAGCCUCCUCGCUGGCGCCUGCUGGGCAACAUUCCGAGUGGACCGUCCCCUCGGUAAUGGCGAAUGGGACCCA [G34U G53U]  0.223
10. GGCCGGCAUGGUCCCAGCCUCCUCGCUGGCGCCUGCUGGGCAACAUUCCGAGGGGACCGUCCCCUCCGUAAUGGCGAAUGGGACCCA [G34U G67C]  0.22
11. GGCCGGCAUGGUCCCAGCCUCCUCGCUGGCGCCUGCUGGGCAACAUUCCGAGGGGACCGUCCCCUCGGUAAUGGCGAAUGGGACCGA [G34U C86G]  0.205
12. GGCCGGCAUGGUCCCAGCCUCCUCGCUGGCGCCUACUGGGCAACAUUCCGAGGGGACCGUCCCCUCGGUAAUGGCGAAUGGGACCCA [G34U G35A]  0.204
13. GGCCGGCAUGGUCCCAGCCUCCUCGCUGGCGCCUGCUGGGCAACAUUCCGAGGGGACCGUCCCCUCGGUAAUGGCGAAUGGGACCUA [G34U C86U]  0.187
14. GGCCGGCAUGGUCCCAGCCUCCUCGCUGGCGCCUGCUGGGCAACAUUCCGAGGGGACCGUCCCCUCGGUAAUGGCGAAUGUGACCCA [G34U G81U]  0.18
15. GGCCGGCAUGGUCCCAGCCUCCUCGCUGGCGCCUGCUGAGCAACAUUCCGAGGGGACCGUCCCCUCGGUAAUGGCGAAUGGGACCCA [G34U G39A]  0.174
16. GGCCGGCAUGGUCCCAGCCUCCUCGCUGGCGCCUCCUGGGCAACAUUCCGAGGGGACCGUCCCCUCGGUAAUGGCGAAUGGGACCCA [G34U G35C]  0.154
17. GGCCGGCAUGGUCCCAGCCUCCUCGCUGGCGCCUGCUGGGCAACAUUCCGAGGGGACCGUCCCCUCGGUAAUGCCGAAUGGGACCCA [G34U G74C]  0.138
18. GGCCGGCAUGGUCCCAGCCUCCUCGCUGGCGCCUGCUGGGCAACAUUCCGAGGGGACCGUCCCCUCGGUAAUGGCGAAUGGCACCCA [G34U G82C]  0.138
19. GGCCGGCAUGGUCCCAGCCUCCUCGCUGGCGCCUGCUGGGCAACAUUCCGAGGGGACCGUCCCCUCGGUAAUGGCGAAUUGGACCCA [G34U G80U]  0.128
20. GGCCGGCAUGGUCCCAGCCUCCUCGCUGGCGCCUGCUGGGCAACAUACCGAGGGGACCGUCCCCUCGGUAAUGGCGAAUGGGACCCA [G34U U47A]  0.128
21. GGCCGGCAUGGUCCCAGCCUCCUCGCUGGCGCCUGCUGGGCAACAUUCCGAGGGGACCGUCCCCUCAGUAAUGGCGAAUGGGACCCA [G34U G67A]  0.115
22. GGCCGGCAUGGUCCCAGCCUCCUCGCUGGCGCCUGCUGGGCAACAUUCCGAGGGAACCGUCCCCUCGGUAAUGGCGAAUGGGACCCA [G34U G55A]  0.114
23. GGCCGGCAUGGUCCCAGCCUCCUCGCUGGCGCCUGCUGGGCAACAUUCCGAGGGCACCGUCCCCUCGGUAAUGGCGAAUGGGACCCA [G34U G55C]  0.102
24. GGCCGGCAUGGUCCCAGCCUCCUCGCUGGCGCCUGCUGGGCAACAUUCCGACGGGACCGUCCCCUCGGUAAUGGCGAAUGGGACCCA [G34U G52C]  0.101
25. GGCCGGCAUGGUCCCAGCCUCCUCGCUGGCGCCUGCUGGGCAACAUUCCGAGGGGACCGUCCCCUCGUUAAUGGCGAAUGGGACCCA [G34U G68U]  0.0966
26. GGCCGGCAUGGUCCCAGCCUCCUCGCUGGCGCCUGCUGGGCAACAUUCCCAGGGGACCGUCCCCUCGGUAAUGGCGAAUGGGACCCA [G34U G50C]  0.0906
27. GGCCGGCAUGGUCCCAGCCUCCUCGCUGGCGCCUGCUGGGCAACAUUCCGAGGGGACCGACCCCUCGGUAAUGGCGAAUGGGACCCA [G34U U60A]  0.0817
28. GGCCGGCAUGGUCCCAGCCUCCUCGCUGGCGCCUGCUGGGCAACAAUCCGAGGGGACCGUCCCCUCGGUAAUGGCGAAUGGGACCCA [G34U U46A]  0.0639
29. GGCCGGCAUGGUCCCAGCCUCCUCGCUGGCGCCUGCUGGGCAACAUUCCGAGGGGACCGUCCCCUCGGUAAUGGCGAAUGGUACCCA [G34U G82U]  0.0631
30. GGCCGGCAUGGUCCCAGCCUCCUCGCUGGCGCCUGCUGGGCAACAUUCCGAUGGGACCGUCCCCUCGGUAAUGGCGAAUGGGACCCA [G34U G52U]  0.0588
31. GGCCGGCAUGGUCCCAGCCUCCUCGCUGGCGCCUGCUGGACAACAUUCCGAGGGGACCGUCCCCUCGGUAAUGGCGAAUGGGACCCA [G34U G40A]  0.0542
32. GGCCGGCAUGGUCCCAGCCUCCUCGCUGGCGCCUGCUGGCCAACAUUCCGAGGGGACCGUCCCCUCGGUAAUGGCGAAUGGGACCCA [G34U G40C]  0.0415
